B1: Abscisic acid receptor PYR1 (Arabidopsis thaliana (Mouse-ear cress)), O49686 (parent)
chain: MPSELTPEERSELKNSIAEFHTYQLDPGSCSSLHAQRIHAPPELVWSIVRRFDKPQTYKHFIKSCSVEQNFEMRVGCTRDVIVISGLPANTSTERLDILDDERRVTGFSIIGGEHRLTNYKSVTTVHRFEKENRIWTVVLESYVVDMPEGNSEDDTRMFADTVVKLNLQKLATVAEAMARNSGDGSGSQVT
B2: Abscisic acid receptor PYL2 (Arabidopsis thaliana (Mouse-ear cress)), O80992 (parent)
chain: MSSSPAVKGLTDEEQKTLEPVIKTYHQFEPDPTTCTSLITQRIHAPASVVWPLIRRFDNPERYKHFVKRCRLISGDGDVGSVREVTVISGLPASTSTERLEFVDDDHRVLSFRVVGGEHRLKNYKSVTSVNEFLNQDSGKVYTVVLESYTVDIPEGNTEEDTKMFVDTVVKLNLQKLGVAATSAPMHDDE

The variants in the first assay derive from B1. The note with it: with HAB1, Q9CAJ0.
For the variant MPSELTPEERSELKNSIAEFHTYQLDPGSCSSLHAQRIHAPPELVWSIVRRFDKPQTYKHFIKSCSVEQNFEMRVGCTRDVIVISGLPANTSTERLDILDDERRVTGFSIIGGEARLTNYKSVTTVHRFEKENRIWTVVLESYVVDMPEGNSEDDTRMFADTVVKLNLQKLATVAEAMARNSGDGSGSQVT [H115A], the “effect of a mutation on the interaction” value was “disrupting interaction”.

The variants in another assay derive from B2. The note with it: with HAB1, Q9CAJ0.
On to MSSSPAVKGLTDEEQKTLEPVIKTYHQFEPDPTTCTSLITQRIHAPASVVWPLIRRFDNPERYKHFVKRCRLISGDGDVGSVREVTVISGLPASTSTERLEFVDDDHRVLSFRVVGGEHALKNYKSVTSVNEFLNQDSGKVYTVVLESYTVDIPEGNTEEDTKMFVDTVVKLNLQKLGVAATSAPMHDDE [R120A], for which the “effect of a mutation on the interaction” value is “decreasing interaction”. Still for that read-out and setting: in the case of MSSSPAVKGLTDEEQKTLEPVIKTYHQFEPDPTTCTSLITQRIHAPASVVWPLIRRFDNPERYKHFVKRCRLISGDGDVGSVREVTVISGLPASTSTERLEFVDDDHRVLSFRVVGGEARLKNYKSVTSVNEFLNQDSGKVYTVVLESYTVDIPEGNTEEDTKMFVDTVVKLNLQKLGVAATSAPMHDDE [H119A] it was “decreasing interaction”.

(Values after IntAct's records for PubMed 19898420.)
